Reference: patent publication US20080182978A1, “ANTI-NGF ANTIBODIES AND METHODS USING SAME” (RINAT NEUROSCIENCE CORP, priority 2002, published 2008)
Each block holds one molecule with its values, some of them ahead of it.

Assays:
human NGF [1] = biological target: T1, human NGF (Homo sapiens, UniProt P01138); experiment: cell-based or functional assay
Target sequence in this assay (P01138 122-241 limits assumed): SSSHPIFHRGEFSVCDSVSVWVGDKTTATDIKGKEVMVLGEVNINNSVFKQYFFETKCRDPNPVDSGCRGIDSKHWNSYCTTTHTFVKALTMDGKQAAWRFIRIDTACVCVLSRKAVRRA

rat NGF (rat) = rat NGF (rat) (UniProt P25427); experiment: cell-based or functional assay
human NGF [2] = biological target: T1, human NGF; experiment: BIAcore screening assay of Fab library clones (koff); assay type: binding; details: Table 6: single CDR H3 or L3 mutation in 8L2-6D5 template
Experimental: Small scale expression in 96 wells plates was optimized for screening Fab libraries. Starting from E. coli transformed with a Fab library, colonies were picked to inoculate both a master plate (agar LB+Ampicillin (50 μg/ml)+2% Glucose) and a working plate (2 ml/well, 96 well/plate containing 1.5 mL of LB+Ampicillin (50 μg/ml)+2% Glucose). Both plates were grown at 30° C. for 8-12 hours. The master plate was stored at 4° C. and the cells from the working plate were pelleted at 5000 rpm and resuspended with 1 mL of LB+Ampicillin (50 μg/ml)+1 mM IPTG to induce expression of Fabs. Cells were harvested by centrifugation after 5 h expression time at 30° C., then resuspended in 500 μL of buffer HBS-EP ([…] buffer pH 7.4, 150 mM NaCl, 0.005% P20, 3 mM EDTA). Lysis of HBS-EP resuspended cells was attained by one cycle of freezing (−80° C.) then thawing at 37° C. Cell lysates were centrifuged at 5000 rpm for 30 min to separate cell debris from supernatants containing Fabs. The supernatants were then injected into the BIAcore plasmon resonance apparatus to obtain affinity information for each Fab. Clones expressing Fabs were rescued from the master plate to sequence the DNA and for large scale Fab production and detailed characterization as described below.
Affinities of anti-NGF Fabs and monoclonal antibodies were determined using the BIAcore300™ surface plasmon resonance (SPR) system (BIAcore, INC, Piscaway N.J.). CM5 chips were activated with N-ethyl-N′-(3-dimethylaminopropyl)-carbodimide hydrochloride (EDC) and N-hydroxysuccinimide (NHS) according to the supplier's instructions. Human NGF was diluted into 10 mM sodium acetate pH 4.0 and injected over the activated chip at a concentration of 0.005 mg/mL. Using variable flow time across the individual chip channels, two ranges of antigen density were achieved: 100-200 response units (RU) for detailed kinetic studies and 500-600 RU for screening assays. The chip was blocked with ethanolamine. […] HBS-EP buffer (0.01M HEPES, pH 7.4, 0.15 NaCl, 3 mM EDTA, 0.005% Surfactant […]) was used as running buffer for all the BIAcore assays.
A screening BIAcore assay was optimized to determine the affinity of Fab clones from libraries. Supernatants of small culture lysates were injected at 50 μl/min for 2 min. Dissociation times of 10 to 15 minutes were used for determination of a single exponential dissociation rate (koff) using BIAevaluation software. […] Clones showing improved (slower) koff values were expressed at large scale and full kinetic parameters, kon and koff, were determined on purified protein. The assay was capable of detecting differences in affinity that were approximately 2-fold or larger.
For affinity screening experiments, each library was further paired with the corresponding CDR-grafted light or heavy chain (for example, the H1/H2 library was paired with CDR-grafted light chain), the antibody was expressed, and affinity to human NGF of the individual clones was screened using the BIACORE surface plasmon resonance (SPR) system (BIAcore, Inc. Piscataway, N.J.) according to the manufacturer's instructions and as described above. koff, kon and KD were determined. Antibody clones were ranked based on koff rates, since generally most variation in affinity is seen in koff rates, and further because koff rates are independent of antibody concentration.
20-80 clones from each small library were screened using BIAcore analysis as described herein. Samples were simultaneously analyzed by BIAcore for binding affinity to NGF in one channel of the BIAcore chip and for presence of Fab by binding to a penta-histag antibody in another channel of the sensor chip, to detect the his tag at the C terminus of the heavy chain. Clones that expressed protein were classified as having the same affinity, worse affinity, better affinity or no binding, using koff to classify: The results of this analysis are shown in Table 5.
Target sequence in this assay (P01138 122-241): as the sequence (P01138 122-241 limits assumed) above

Sequence of rat NGF (rat) (P25427 122-241 limits assumed): as the sequence (P01138 122-241 limits assumed) above, with S3T, I6V, R9M, M37T, D60A, D65E, M92T, G94D, V117A, A120G counted along it

Molecule: mouse antibody 911 (Fab)
- IC50, human NGF-dependent survival of mouse E13.5 trigeminal neurons, 1.5 pM NGF (human NGF [1]): 63.5 pM
- IC50, human NGF-dependent survival of mouse E13.5 trigeminal neurons, 15 pM NGF (human NGF [1]): 322 pM
- IC50, rat NGF-dependent survival of mouse E13.5 trigeminal neurons, 1.5 pM NGF (rat NGF (rat)): 34.6 pM
- IC50, rat NGF-dependent survival of mouse E13.5 trigeminal neurons, 15 pM NGF (rat NGF (rat)): 161 pM

B1: Y106R: 8L2-6D5 template with CDR H3 mutation Y106R (antibody, V domains shown)
VH: QVQLQESGPGLVKPSETLSLTCTVSGFSLIGYDINWIRQPPGKGLEWIGMIWGDGTTDYNSALKSRVTISKDTSKNQFSLKLSSVTAADTAVYYCARGGYYYGTSRYFDYWGQGTLVTVS
VL: DIQMTQSPSSLSASVGDRVTITCRASQDISNHLNWYQQKPGKAPKLLIYYISRFHSGVPSRFSGSGSGTDFTFTISSLQPEDIATYYCQQSKTLPYTFGQGTKLEIKRT
- koff (human NGF [2]): 0.0016 s⁻¹

B2: F108W: 8L2-6D5 template with CDR H3 mutation F108W (antibody, V domains shown)
VH: QVQLQESGPGLVKPSETLSLTCTVSGFSLIGYDINWIRQPPGKGLEWIGMIWGDGTTDYNSALKSRVTISKDTSKNQFSLKLSSVTAADTAVYYCARGGYYYGTSYYWDYWGQGTLVTVS
VL: DIQMTQSPSSLSASVGDRVTITCRASQDISNHLNWYQQKPGKAPKLLIYYISRFHSGVPSRFSGSGSGTDFTFTISSLQPEDIATYYCQQSKTLPYTFGQGTKLEIKRT
- koff (human NGF [2]): 0.00122 s⁻¹

B4: Y110S: 8L2-6D5 template with CDR H3 mutation Y110S (antibody, V domains shown)
VH: QVQLQESGPGLVKPSETLSLTCTVSGFSLIGYDINWIRQPPGKGLEWIGMIWGDGTTDYNSALKSRVTISKDTSKNQFSLKLSSVTAADTAVYYCARGGYYYGTSYYFDSWGQGTLVTVS
VL: DIQMTQSPSSLSASVGDRVTITCRASQDISNHLNWYQQKPGKAPKLLIYYISRFHSGVPSRFSGSGSGTDFTFTISSLQPEDIATYYCQQSKTLPYTFGQGTKLEIKRT
- koff (human NGF [2]): 0.0015 s⁻¹

B5: Y106T: 8L2-6D5 template with CDR H3 mutation Y106T (antibody, V domains shown)
VH: QVQLQESGPGLVKPSETLSLTCTVSGFSLIGYDINWIRQPPGKGLEWIGMIWGDGTTDYNSALKSRVTISKDTSKNQFSLKLSSVTAADTAVYYCARGGYYYGTSTYFDYWGQGTLVTVS
VL: DIQMTQSPSSLSASVGDRVTITCRASQDISNHLNWYQQKPGKAPKLLIYYISRFHSGVPSRFSGSGSGTDFTFTISSLQPEDIATYYCQQSKTLPYTFGQGTKLEIKRT
- koff (human NGF [2]): 0.002 s⁻¹

B6: D109G: 8L2-6D5 template with CDR H3 mutation D109G (antibody, V domains shown)
VH: QVQLQESGPGLVKPSETLSLTCTVSGFSLIGYDINWIRQPPGKGLEWIGMIWGDGTTDYNSALKSRVTISKDTSKNQFSLKLSSVTAADTAVYYCARGGYYYGTSYYFGYWGQGTLVTVS
VL: DIQMTQSPSSLSASVGDRVTITCRASQDISNHLNWYQQKPGKAPKLLIYYISRFHSGVPSRFSGSGSGTDFTFTISSLQPEDIATYYCQQSKTLPYTFGQGTKLEIKRT
- koff (human NGF [2]): 0.001 s⁻¹

B7: Y110R: 8L2-6D5 template with CDR H3 mutation Y110R (antibody, V domains shown)
VH: QVQLQESGPGLVKPSETLSLTCTVSGFSLIGYDINWIRQPPGKGLEWIGMIWGDGTTDYNSALKSRVTISKDTSKNQFSLKLSSVTAADTAVYYCARGGYYYGTSYYFDRWGQGTLVTVS
VL: DIQMTQSPSSLSASVGDRVTITCRASQDISNHLNWYQQKPGKAPKLLIYYISRFHSGVPSRFSGSGSGTDFTFTISSLQPEDIATYYCQQSKTLPYTFGQGTKLEIKRT
- koff (human NGF [2]): 0.0016 s⁻¹

B8: Y96R: 8L2-6D5 template with CDR L3 mutation Y96R (antibody, V domains shown)
VH: QVQLQESGPGLVKPSETLSLTCTVSGFSLIGYDINWIRQPPGKGLEWIGMIWGDGTTDYNSALKSRVTISKDTSKNQFSLKLSSVTAADTAVYYCARGGYYYGTSYYFDYWGQGTLVTVS
VL: DIQMTQSPSSLSASVGDRVTITCRASQDISNHLNWYQQKPGKAPKLLIYYISRFHSGVPSRFSGSGSGTDFTFTISSLQPEDIATYYCQQSKTLPRTFGQGTKLEIKRT
- koff (human NGF [2]): 0.0017 s⁻¹

B11: Y106M: 8L2-6D5 template with CDR H3 mutation Y106M (antibody, V domains shown)
VH: QVQLQESGPGLVKPSETLSLTCTVSGFSLIGYDINWIRQPPGKGLEWIGMIWGDGTTDYNSALKSRVTISKDTSKNQFSLKLSSVTAADTAVYYCARGGYYYGTSMYFDYWGQGTLVTVS
VL: DIQMTQSPSSLSASVGDRVTITCRASQDISNHLNWYQQKPGKAPKLLIYYISRFHSGVPSRFSGSGSGTDFTFTISSLQPEDIATYYCQQSKTLPYTFGQGTKLEIKRT
- koff (human NGF [2]): 0.0027 s⁻¹

More lines, now with the values ahead:

- koff (human NGF [2]): 0.0014 s⁻¹
B3: Y107F: 8L2-6D5 template with CDR H3 mutation Y107F (antibody, V domains shown)
VH: QVQLQESGPGLVKPSETLSLTCTVSGFSLIGYDINWIRQPPGKGLEWIGMIWGDGTTDYNSALKSRVTISKDTSKNQFSLKLSSVTAADTAVYYCARGGYYYGTSYFFDYWGQGTLVTVS
VL: DIQMTQSPSSLSASVGDRVTITCRASQDISNHLNWYQQKPGKAPKLLIYYISRFHSGVPSRFSGSGSGTDFTFTISSLQPEDIATYYCQQSKTLPYTFGQGTKLEIKRT

- koff (human NGF [2]): 0.0014 s⁻¹
B9: Y110K: 8L2-6D5 template with CDR H3 mutation Y110K (antibody, V domains shown)
VH: QVQLQESGPGLVKPSETLSLTCTVSGFSLIGYDINWIRQPPGKGLEWIGMIWGDGTTDYNSALKSRVTISKDTSKNQFSLKLSSVTAADTAVYYCARGGYYYGTSYYFDKWGQGTLVTVS
VL: DIQMTQSPSSLSASVGDRVTITCRASQDISNHLNWYQQKPGKAPKLLIYYISRFHSGVPSRFSGSGSGTDFTFTISSLQPEDIATYYCQQSKTLPYTFGQGTKLEIKRT

- koff (human NGF [2]): 0.0015 s⁻¹
B10: D109N: 8L2-6D5 template with CDR H3 mutation D109N (antibody, V domains shown)
VH: QVQLQESGPGLVKPSETLSLTCTVSGFSLIGYDINWIRQPPGKGLEWIGMIWGDGTTDYNSALKSRVTISKDTSKNQFSLKLSSVTAADTAVYYCARGGYYYGTSYYFNYWGQGTLVTVS
VL: DIQMTQSPSSLSASVGDRVTITCRASQDISNHLNWYQQKPGKAPKLLIYYISRFHSGVPSRFSGSGSGTDFTFTISSLQPEDIATYYCQQSKTLPYTFGQGTKLEIKRT

- koff (human NGF [2]): 0.0017 s⁻¹
B12: Y110T: 8L2-6D5 template with CDR H3 mutation Y110T (antibody, V domains shown)
VH: QVQLQESGPGLVKPSETLSLTCTVSGFSLIGYDINWIRQPPGKGLEWIGMIWGDGTTDYNSALKSRVTISKDTSKNQFSLKLSSVTAADTAVYYCARGGYYYGTSYYFDTWGQGTLVTVS
VL: DIQMTQSPSSLSASVGDRVTITCRASQDISNHLNWYQQKPGKAPKLLIYYISRFHSGVPSRFSGSGSGTDFTFTISSLQPEDIATYYCQQSKTLPYTFGQGTKLEIKRT
